The labels stand for the following.
B1: mRNA-splicing (parent)
chain: AGUUGCUGCUGGGAGCUCCAGCACAGUGAAAUGGACAGAAGGGCAGAGCAA

Variants of B1 are the subject of the data set. In words: exon inclusion enrichment index; higher = more inclusion; WT1 exon 5 minigene, HEK293.
On to G5C C6G U7C U10C G33A, for which the “exon inclusion enrichment index” value came to 0.609.
The figure for G5C C6G U7C U10C G33C is 3.55.
The figure for G5C C6G U7C U10C G33U is 1.79; for G5C C6G U7C U10C G11U G12U it is 1.49.
The figure for G5C C6G U7C U10C G11U G12A is 1.11.
For the variant G5C C6G U7C U10C G11U G12C, the “exon inclusion enrichment index” value came out at 1.54.
As for G5C C6G U7C U10C G43U C44U, the “exon inclusion enrichment index” value was 1.4.
The same measure for G5C C6G U7C U10C G43U C44G: 0.713.
In the case of G5C C6G U7C U10C G43U C44A, the “exon inclusion enrichment index” value was found to be 0.0721.
The same measure for G5C C6G U7C U10C G26U U27C: 4.3; for G5C C6G U7C U10C G26U U27G: 3.98.
In the case of G5C C6G U7C U10C G26U U27A, the “exon inclusion enrichment index” value was 2.22.
As to G5C C6G U7C U10C G34A A35U, the “exon inclusion enrichment index” value is 1.96.
The figure for G5C C6G U7C U10C G34A A35C is 2.92; for G5C C6G U7C U10C G34A A35G it is 2.26; for G5C C6G U7C U10C C44A A45U it is 5.86.
The same measure for G5C C6G U7C U10C C44A A45G: 5.42; for G5C C6G U7C U10C C44A A45C: 4.3.
The same measure for G5C C6G U7C U10C C24U: 1.76.
For the variant G5C C6G U7C U10C C24A, the “exon inclusion enrichment index” value was 3.28.
The figure for G5C C6G U7C U10C C24G is 4.23.
Take G5C C6G U7C U10C G13C A14G: the “exon inclusion enrichment index” value worked out at 1.61.
The figure for G5C C6G U7C U10C G13C A14U is 1.88; for G5C C6G U7C U10C G13C A14C it is 1.79.
The same measure for G5C C6G U7C U10C A47C G48U: 2.62.
In the case of G5C C6G U7C U10C A47C G48C, the “exon inclusion enrichment index” value was 2.99.
The same measure for G5C C6G U7C U10C A47C G48A: 1.78; for G5C C6G U7C U10C A39G A40U: 0.671; for G5C C6G U7C U10C A39G A40C: 3.86.
The same measure for G5C C6G U7C U10C A39G A40G: 0.367; for G5C C6G U7C U10C G42U G43U: 4.33; for G5C C6G U7C U10C G42U G43A: 4.08.
The same measure for G5C C6G U7C U10C G42U G43C: 2.28; for G5C C6G U7C U10C G41U G42U: 2.79.
On to G5C C6G U7C U10C G41U G42A, for which the “exon inclusion enrichment index” value was found to be 1.45.
The figure for G5C C6G U7C U10C G41U G42C is 3.95.
The figure for G5C C6G U7C U10C A35C C36U is 0.625.
The figure for G5C C6G U7C U10C A35C C36G is 2.6; for G5C C6G U7C U10C A35C C36A it is 2.13.
As to G5C C6G U7C U10C G11C G12A, the “exon inclusion enrichment index” value turned out to be 1.1.
As to G5C C6G U7C U10C G11C G12U, the “exon inclusion enrichment index” value was 0.699.
The figure for G5C C6G U7C U10C G11C G12C is 1.04; for G5C C6G U7C U10C A35G C36A it is 2.07; for G5C C6G U7C U10C A35G C36G it is 0.751.
The figure for G5C C6G U7C U10C A35G C36U is 0.0687.
The same measure for G5C C6G U7C U10C A40C: 3.66; for G5C C6G U7C U10C A40G: 3.16; for G5C C6G U7C U10C A40U: 2.71.
Regarding G5C C6G U7C U10C A45C G46U, the “exon inclusion enrichment index” value was found to be 1.87.
The same measure for G5C C6G U7C U10C A45C G46C: 2.31; for G5C C6G U7C U10C A45C G46A: 2.12.
The figure for G5C C6G U7C U10C A31C U32C is 3.85; for G5C C6G U7C U10C A31C U32G it is 3.82; for G5C C6G U7C U10C A31C U32A it is 2.89.
For G5C C6G U7C U10C G33U G34A, the “exon inclusion enrichment index” value stood at 0.696.
On to G5C C6G U7C U10C G33U G34C, for which the “exon inclusion enrichment index” value worked out at 1.15.
The same measure for G5C C6G U7C U10C G33U G34U: 0.875; for G5C C6G U7C U10C G21C C22U: 3.43; for G5C C6G U7C U10C G21C C22G: 4.61.
With G5C C6G U7C U10C G21C C22A, the “exon inclusion enrichment index” value was 3.02.
The same measure for G5C C6G U7C U10C C19U A20C: 3.09; for G5C C6G U7C U10C C19U A20G: 1.14; for G5C C6G U7C U10C C19U A20U: 1.48.
The figure for G5C C6G U7C U10C A31G U32G is 2.67; for G5C C6G U7C U10C A31G U32C it is 4.5; for G5C C6G U7C U10C A31G U32A it is 5.21.
As to G5C C6G U7C U10C C36G A37U, the “exon inclusion enrichment index” value stood at 2.09.
The same measure for G5C C6G U7C U10C C36G A37G: 1.19; for G5C C6G U7C U10C C36G A37C: 1.47; for G5C C6G U7C U10C C44G A45G: 1.17.
The figure for G5C C6G U7C U10C C44G A45C is 5.06; for G5C C6G U7C U10C C44G A45U it is 3.36.
The same measure for G5C C6G U7C U10C G33C G34U: 2.86; for G5C C6G U7C U10C G33C G34A: 2.48; for G5C C6G U7C U10C G33C G34C: 2.29.
As for G5C C6G U7C U10C C19A A20G, the “exon inclusion enrichment index” value amounted to 0.953.
In the case of G5C C6G U7C U10C C19A A20C, the “exon inclusion enrichment index” value is 2.85.
The same measure for G5C C6G U7C U10C C19A A20U: 1.52; for G5C C6G U7C U10C A37U G38C: 2.27.
The same measure for G5C C6G U7C U10C A37U G38U: 1.52.
The figure for G5C C6G U7C U10C A37U G38A is 1.78; for G5C C6G U7C U10C G15A C16A it is 3.14; for G5C C6G U7C U10C G15A C16U it is 3.21.
In the case of G5C C6G U7C U10C G15A C16G, the “exon inclusion enrichment index” value was 3.04.

The values above are taken from the RNAGym collection of RNA variant scans (doi:10.1101/gr.219683.116).
